From publication PMC10018367
Like-named read-outs stand apart in the source and are kept apart here.

Columns and labels:
Assay in all cases: EMSA
PARP1 [1] = target: T1, PARP1 (Homo sapiens, UniProt P09874 1-1014)
PARP1 [2] = target: T1, PARP1; remark: listed apart in the source
PARP1 [3] = target: T1, PARP1; remark: listed apart in the source
PARP1 [4] = target: T1, PARP1; remark: listed apart in the source

T1 sequence (P09874 whole entry): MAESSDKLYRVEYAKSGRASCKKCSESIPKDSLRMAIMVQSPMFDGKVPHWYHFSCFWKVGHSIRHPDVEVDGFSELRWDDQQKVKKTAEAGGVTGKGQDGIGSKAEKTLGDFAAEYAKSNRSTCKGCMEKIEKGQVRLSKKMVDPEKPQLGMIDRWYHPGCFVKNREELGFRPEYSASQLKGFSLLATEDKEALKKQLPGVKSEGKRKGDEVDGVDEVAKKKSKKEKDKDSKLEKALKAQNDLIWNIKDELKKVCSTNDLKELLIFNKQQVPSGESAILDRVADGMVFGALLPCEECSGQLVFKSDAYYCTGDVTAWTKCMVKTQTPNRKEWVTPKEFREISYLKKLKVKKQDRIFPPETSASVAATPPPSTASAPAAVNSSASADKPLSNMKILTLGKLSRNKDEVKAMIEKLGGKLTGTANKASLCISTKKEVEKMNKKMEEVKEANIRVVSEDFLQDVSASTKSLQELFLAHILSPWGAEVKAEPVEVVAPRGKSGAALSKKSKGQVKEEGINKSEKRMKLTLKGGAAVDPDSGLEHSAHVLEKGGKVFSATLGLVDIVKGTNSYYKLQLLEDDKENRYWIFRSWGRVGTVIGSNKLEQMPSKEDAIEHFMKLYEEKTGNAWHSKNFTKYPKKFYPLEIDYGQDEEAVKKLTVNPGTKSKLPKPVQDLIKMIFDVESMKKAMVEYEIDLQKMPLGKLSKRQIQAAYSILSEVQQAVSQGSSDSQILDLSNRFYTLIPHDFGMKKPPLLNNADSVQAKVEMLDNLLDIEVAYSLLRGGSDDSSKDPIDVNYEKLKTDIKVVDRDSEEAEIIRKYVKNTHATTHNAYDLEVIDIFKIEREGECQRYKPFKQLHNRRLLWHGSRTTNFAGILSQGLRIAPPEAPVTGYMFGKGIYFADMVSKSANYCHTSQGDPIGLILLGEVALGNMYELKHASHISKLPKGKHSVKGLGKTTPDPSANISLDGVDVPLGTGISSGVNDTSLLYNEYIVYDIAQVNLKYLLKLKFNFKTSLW

AAAGAUGUCCUAGCAAGGCAC (ssRNA) [ssRNA JYM3704]
binding result (PARP1 [1]): no binding

B1: ssDNA JYM3702 (ssDNA)
DNA: GGGTGAACCTGCAGGTGGGCGGCTGCTCATCGTAGGTTAGTTGGTAGAATTCGGCAGCGTC
binding result (PARP1 [2]): binds

B2: D-loop (JYM3702 + JYM3703 + JYM3705) (structured_DNA)
DNA 1: B1 DNA
DNA 2: GACGCTGCCGAATTCTACCAGTGCCTTGCTAGGACATCTTTGCCCACCTGCAGGTTCACCC
DNA 3: AAAGATGTCCTAGCAAGGCAC
binding result (PARP1 [3]): binds

B3: R-loop (JYM3702 + JYM3703 + JYM3704) (mixed)
DNA 1: B1 DNA
DNA 2: B2 DNA 2
RNA: AAAGAUGUCCUAGCAAGGCAC
modifications: RNA strand 3
binding result (PARP1 [4]): binds
